Results as given in the supplement of paper PMC10567573.

B1: PCDHGA10 (parent)
chain: FHELQMQVTASDSGDPPLSSNVSL

Variants of: B1
Test: protein stability index of a GFP-peptide fusion (GPS, HEK-293T) (PSI 1-6); higher = more stable
Details: c terminus: a fixed tail appended
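Note: lentivirally expressed fusions sorted by FACS into six bins by GFP to DsRed ratio, PSI derived from sequencing read proportions per bin multiplied by bin number.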

Protein stability index, by site and new letter:
S19: L 1.85; C 1.93; K 2.11; H 1.81; W 2.45; Q 2.36; G 2; T 2.02; E 3.04; F 2.07; M 2.36; P 2.2; Y 1.94; I 1.66; R 2.02; A 2.17; V 1.57
H2: Q 3.43; T 2.81; G 3.94; M 2.81; Y 2.31; D 4.49; L 2.51; P 3.99; I 1.88; N 4.47; R 3.85; C 2.11; W 1.78; K 3.84; S 3.83
D12: L 1.73; K 2.35; W 1.81; I 2.07; H 1.88; P 1.89; S 2.15; F 2.47; Q 1.89; R 1.82; C 1.98; E 2.23; A 1.46; Y 2.54; V 1.73
G14: E 2.98; L 2.11; R 2.21; C 2.44; F 1.82; W 2.11; Q 1.62; S 2.34; V 2.59; N 2.27; D 2.6; T 2.31; M 2.09; H 2.54; I 2.12; A 2.33; P 3.16; K 2.31
F1: H 4.61; V 4.11; W 3.81; G 4.74; A 4.58; P 4.8; D 4.91; R 4.66; E 5.2; C 3.83; I 3.74; Q 4.62; S 5.08
P16: W 1.69; R 2.19; L 1.57; C 1.85; S 2.04; Y 1.59; E 2.54; T 1.99; M 2.14; N 2.23; D 2.49; I 1.7; K 2.36; F 1.6; H 2.1
S11: R 1.96; W 2.59; L 2.27; V 1.93; D 2.3; E 2.82; Q 2.72; F 1.55; K 2.9; T 2.4; M 1.78; N 2.03; H 2.16; C 2.12
L24: R 2.75; M 2.68; H 2.84; D 3.17; S 3.29; P 2.9; C 2.84; I 1.83; T 3.22; Y 2.31; N 2.96; F 2.06; G 2.52; W 2.64; Q 3.26
T9: I 2.09; R 2.88; P 3.32; F 2.63; S 2.16; H 2.43; E 3.53; K 2.65; V 2.12; G 2.86; L 1.99; W 2.95
N21: L 2.34; D 2.5; M 1.75; W 1.55; S 2.1; Y 1.64; G 2.24; T 2.09; C 2.09; Q 2.05; V 1.58; H 2.06; F 1.54; R 1.91
L18: G 3.05; R 2.42; Y 2.15; I 2.33; D 3.51; F 2.56; P 3.02; T 2.74; V 2.43; W 2.3; S 3.29; Q 3
A10: F 1.97; T 2.13; H 2.51; R 1.48; S 2.35; P 2.88; L 1.29; K 2.41; W 1.86; N 1.99; C 1.74; Q 2.44; Y 2.02; E 2.7
S13: R 2.12; G 2.33; T 1.75; F 1.52; W 1.6; A 1.82; L 2.13; K 2.01; H 2.1; C 2.43; Y 1.88
V22: T 2.83; M 2.34; W 2.05; K 2.84; S 3.11; P 2.34; F 1.8; C 2.38; E 3.24; I 1.85; Y 2.56; D 3.4; G 2.72; L 2.71; A 2.52
D15: V 1.92; T 1.8; S 1.67; M 1.91; A 2.08; R 2.18; C 1.79; H 1.88; W 3.09; I 1.93; K 1.85; Y 1.42; E 1.98
Q7: P 1.71; H 2.09; A 2.04; S 1.74; D 3.06; G 2.78; K 1.67; M 1.7; Y 2.69; T 2.33; N 2; I 2.62; F 2.66; E 2.54
Q5: V 2.04; F 3.27; P 2.23; D 3.32; N 2.86; Y 1.87; W 3.59; S 2.11; K 2.13; T 2.16; H 2.44; I 1.82; C 1.88
L4: Y 2.04; S 3.46; G 2.67; R 2.77; K 2.73; P 2.57; V 2.84; A 2.76; I 2.28; E 4.19; T 2.97; Q 3.36; N 3.6
M6: D 3.81; V 2.56; N 3.46; W 2.02; T 3.32; R 3; H 2.98; I 1.65; A 2.84; K 2.52; G 3.07; F 1.4; Y 2.46
E3: W 2.54; N 1.7; V 1.6; H 1.75; G 2.69; R 1.85; D 2.07; L 1.92; I 2.38; M 2.31; A 1.91; S 1.59; T 1.82; Y 2.26
P17: Q 1.93; A 2.29; R 1.79; D 2.28; M 2.38; S 2.13; W 1.48; E 2.28; C 1.56; G 2.14; F 1.97; N 2.12; V 1.78; L 1.16; H 1.85; T 1.93; K 2.43
V8: K 3.06; Y 2.01; F 1.95; N 3.72; L 2.15; M 2.28; R 3.2; Q 3.51; E 3.94; S 3.07; G 3.3; C 2.56; P 3.33
S23: A 2.15; V 2.05; T 2.18; F 2.39; P 2.82; K 2.84; D 3.16; I 1.89; E 3.33; Y 1.75; C 1.72
S20: I 2.85; R 1.42; Y 1.83; V 3.46; N 2.47; L 2.69; K 1.85; F 2.69; G 1.91; P 2.54; H 2.05; D 3.06; A 1.82
